The source of these data is patent US20090088376A1, “DENDRIMER BASED COMPOSITIONS AND METHODS OF USING THE SAME” (priority 2007, published 2009).

The assay concerns A431 cells. The experiment in a line: Binding of dendrimer-EGF conjugate by flow cytometry. Type of assay: cell-based. As for the experimental part:
Cell culture and treatment. The cell lines were cultured in Dulbecco's Modified Eagle Medium (DMEM) supplemented with 10% fetal calf serum (FCS), 100 units/ml penicillin, and 100 μg/ml streptomycin. Cells were allowed to grow in a monolayer in tissue culture flasks incubated at 37° C. in a humidified atmosphere containing 5% CO2 and 95% air. Cells plated in 24-well plates (for flow cytometry), 35 mm dishes with glass cover slips in the bottom (for confocal microscopy) and 96 well plates (for ‘FACE’ and ‘XTT’ assays) were treated with the conjugate under the specified incubation conditions. Excess free EGF was added 30 min prior to the conjugates for blocking the binding of the latter. Competition assay with free EGF was conducted at 4° C. by simultaneously exposing the conjugate and free EGF.
Flow Cytometry and Confocal Microscopy. The FITC fluorescence was quantified on a f a BECKMAN-COULTER EPICS-XL MCL flow cytometer, and the data were analyzed using EXPO32 software (BECKMAN-COULTER, Miami, Fla.). The viable cells were gated, and the mean FL1-fluorescence of 10,000 cells was quantified. […] Cells were incubated with the conjugate in serum-free medium under the specified conditions and analyzed using an OLYMPUS FLUOVIEW 500 laser scanning confocal microscope. FITC fluorescence was excited with a 488 nm blue argon laser and emission was measured through a 505-525 nm barrier filter. […]

B1: EGF-FI (conjugate, UniProt P01133 23-1207, looked up)
Pro-epidermal growth factor: PQHWSCPEGTLAGNGNSTCVGPAPFLIFSHGNSIFRIDTEGTNYEQLVVDAGVSVIMDFHYNEKRIYWVDLERQLLQRVFLNGSRQERVCNIEKNVSGMAINWINEEVIWSNQQEGIITVTDMKGNNSHILLSALKYPANVAVDPVERFIFWSSEVAGSLYRADLDGVGVKALLETSEKITAVSLDVLDKRLFWIQYNREGSNSLICSCDYDGGSVHISKHPTQHNLFAMSLFGDRIFYSTWKMKTIWIANKHTGKDMVRINLHSSFVPLGELKVVHPLAQPKAEDDTWEPEQKLCKLRKGNCSSTVCGQDLQSHLCMCAEGYALSRDRKYCEDVNECAFWNHGCTLGCKNTPGSYYCTCPVGFVLLPDGKRCHQLVSCPRNVSECSHDCVLTSEGPLCFCPEGSVLERDGKTCSGCSSPDNGGCSQLCVPLSPVSWECDCFPGYDLQLDEKSCAASGPQPFLLFANSQDIRHMHFDGTDYGTLLSQQMGMVYALDHDPVENKIYFAHTALKWIERANMDGSQRERLIEEGVDVPEGLAVDWIGRRFYWTDRGKSLIGRSDLNGKRSKIITKENISQPRGIAVHPMAKRLFWTDTGINPRIESSSLQGLGRLVIASSDLIWPSGITIDFLTDKLYWCDAKQSVIEMANLDGSKRRRLTQNDVGHPFAVAVFEDYVWFSDWAMPSVMRVNKRTGKDRVRLQGSMLKPSSLVVVHPLAKPGADPCLYQNGGCEHICKKRLGTAWCSCREGFMKASDGKTCLALDGHQLLAGGEVDLKNQVTPLDILSKTRVSEDNITESQHMLVAEIMVSDQDDCAPVGCSMYARCISEGEDATCQCLKGFAGDGKLCSDIDECEMGVPVCPPASSKCINTEGGYVCRCSEGYQGDGIHCLDIDECQLGEHSCGENASCTNTEGGYTCMCAGRLSEPGLICPDSTPPPHLREDDHHYSVRNSDSECPLSHDGYCLHDGVCMYIEALDKYACNCVVGYIGERCQYRDLKWWELRHAGHGQQQKVIVVAVCVVVLVMLLLLSLWGAHYYRTQKLLSKNPKNPYEESSRDVRSRRPADTEDGMSSCPQPWFVVIKEHQDLKNGGQPVAGEDGQAADGSMQPTSWRQEPQLCGMGTEQGCWIPVSSDKGSCPQVMERSFHMPSYGTQTLEGGVEKPHSLLSANPLWQQRALDPPHQMELTQ
modifications: Pro-epidermal growth factor fluorescein label
As for B1, the IC50 (100 nM conjugate, 1 h at 4° C., value listed under the conjugate displaced, read-out: concentration of free EGF giving 50% inhibition of binding of the labeled conjugate) was found to be 60 nM. Besides, the “apparent KA” value (double reciprocal binding plots of normalized fluorescence) turned out to be 15 nM.
